Experimental data from patent publication US20250283117, “RNA-GUIDED NUCLEASES AND ACTIVE FRAGMENTS AND VARIANTS THEREOF AND METHODS OF USE” (Life Edit Therapeutics, Inc., published 2025).

T1: APG05459.1 (Enterococcus sp.)
T1 sequence: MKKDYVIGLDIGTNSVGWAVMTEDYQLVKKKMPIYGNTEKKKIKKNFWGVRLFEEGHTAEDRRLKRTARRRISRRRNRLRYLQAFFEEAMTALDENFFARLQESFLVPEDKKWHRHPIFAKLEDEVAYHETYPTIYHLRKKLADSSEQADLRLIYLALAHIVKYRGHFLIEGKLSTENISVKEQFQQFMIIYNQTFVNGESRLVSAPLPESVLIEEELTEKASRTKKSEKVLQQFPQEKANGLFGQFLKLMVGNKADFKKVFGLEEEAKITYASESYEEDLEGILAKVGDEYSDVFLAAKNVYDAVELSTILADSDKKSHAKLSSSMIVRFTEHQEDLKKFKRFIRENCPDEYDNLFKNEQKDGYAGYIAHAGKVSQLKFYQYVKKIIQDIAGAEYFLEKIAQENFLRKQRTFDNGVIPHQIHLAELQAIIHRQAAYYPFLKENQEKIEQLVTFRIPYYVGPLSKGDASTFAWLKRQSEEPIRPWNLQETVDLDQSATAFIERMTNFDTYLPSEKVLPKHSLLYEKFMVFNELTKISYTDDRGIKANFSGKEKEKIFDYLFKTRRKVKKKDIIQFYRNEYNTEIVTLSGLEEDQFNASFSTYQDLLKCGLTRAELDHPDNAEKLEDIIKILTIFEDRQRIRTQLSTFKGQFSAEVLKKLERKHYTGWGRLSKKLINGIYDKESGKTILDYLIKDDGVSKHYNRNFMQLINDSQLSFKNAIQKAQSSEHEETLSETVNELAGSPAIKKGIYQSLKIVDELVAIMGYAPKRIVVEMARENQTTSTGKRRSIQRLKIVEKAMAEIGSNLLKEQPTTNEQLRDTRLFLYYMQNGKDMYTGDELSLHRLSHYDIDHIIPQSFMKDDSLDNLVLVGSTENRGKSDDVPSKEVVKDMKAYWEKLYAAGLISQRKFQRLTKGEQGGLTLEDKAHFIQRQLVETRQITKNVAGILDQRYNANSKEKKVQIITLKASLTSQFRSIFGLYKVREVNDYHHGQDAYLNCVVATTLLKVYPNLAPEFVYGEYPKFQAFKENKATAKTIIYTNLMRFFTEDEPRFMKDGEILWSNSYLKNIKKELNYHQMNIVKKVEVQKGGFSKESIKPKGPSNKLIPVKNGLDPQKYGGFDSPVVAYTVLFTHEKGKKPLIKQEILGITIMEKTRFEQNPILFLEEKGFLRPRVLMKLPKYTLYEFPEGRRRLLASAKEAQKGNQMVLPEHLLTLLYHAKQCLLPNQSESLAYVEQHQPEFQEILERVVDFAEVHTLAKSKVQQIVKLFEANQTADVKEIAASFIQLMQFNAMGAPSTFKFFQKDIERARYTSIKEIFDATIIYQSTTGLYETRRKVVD

T2: APG05083.1 (Bacillus sp.)
T2 chain: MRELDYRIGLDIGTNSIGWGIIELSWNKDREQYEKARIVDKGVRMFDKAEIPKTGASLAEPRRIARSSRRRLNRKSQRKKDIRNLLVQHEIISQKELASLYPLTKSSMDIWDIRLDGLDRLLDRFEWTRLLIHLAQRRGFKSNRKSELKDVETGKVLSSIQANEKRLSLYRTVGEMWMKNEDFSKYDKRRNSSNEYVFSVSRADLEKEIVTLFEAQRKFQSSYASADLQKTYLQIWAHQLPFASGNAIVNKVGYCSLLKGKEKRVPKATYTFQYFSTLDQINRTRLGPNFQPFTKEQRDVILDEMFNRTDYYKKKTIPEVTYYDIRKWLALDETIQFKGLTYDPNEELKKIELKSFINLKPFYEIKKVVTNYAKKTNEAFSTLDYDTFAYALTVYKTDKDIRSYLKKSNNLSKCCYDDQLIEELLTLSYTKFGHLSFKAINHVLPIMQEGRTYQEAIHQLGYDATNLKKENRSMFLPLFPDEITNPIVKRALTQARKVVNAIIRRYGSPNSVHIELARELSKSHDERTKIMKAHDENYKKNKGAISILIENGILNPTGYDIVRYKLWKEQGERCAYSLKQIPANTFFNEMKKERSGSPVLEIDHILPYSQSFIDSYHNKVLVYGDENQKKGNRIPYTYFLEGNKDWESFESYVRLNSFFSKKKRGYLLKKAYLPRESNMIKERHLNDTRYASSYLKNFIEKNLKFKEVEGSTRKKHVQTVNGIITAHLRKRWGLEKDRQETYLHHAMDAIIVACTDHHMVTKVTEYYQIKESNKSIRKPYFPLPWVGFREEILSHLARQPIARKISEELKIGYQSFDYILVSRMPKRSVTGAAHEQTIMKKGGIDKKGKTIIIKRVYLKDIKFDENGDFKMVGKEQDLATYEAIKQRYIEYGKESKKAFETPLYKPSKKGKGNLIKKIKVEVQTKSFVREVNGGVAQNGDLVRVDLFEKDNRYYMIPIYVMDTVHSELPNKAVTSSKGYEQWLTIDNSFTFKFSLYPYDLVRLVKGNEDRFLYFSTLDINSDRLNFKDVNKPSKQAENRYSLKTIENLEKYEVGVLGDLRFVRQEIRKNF

B1: Guide 168 ; HPRT1 target of guide 168 (ssRNA ; dsDNA)
RNA: CACAUCUCGAGCAAGACGUUGUCAUAGUUCCAUUAUUGCAAAGGCUUUGAUGUUUCUAUGAUAAGGGCUUAGGCCCGUGGCGUUGGGGAUCGCCUGCCCAUUUUAAUGGGCUUCUCCCCAUCUAUUU
DNA 1: CACATCTCGAGCAAGACGTT
DNA 2: AACGTCTTGCTCGAGATGTG
B2: Guide 185 ; RelA target of guide 185 (ssRNA ; dsDNA)
RNA: GGACAGUGCGCAUCUCCCUGGUCAUAGUUCCAUUAUUGCAAAGGCUUUGAUGUUUCUAUGAUAAGGGCUUAGGCCCGUGGCGUUGGGGAUCGCCUGCCCAUUUUAAUGGGCUUCUCCCCAUCUAUUU
DNA 1: GGACAGTGCGCATCTCCCTG
DNA 2: CAGGGAGATGCGCACTGTCC

test system: T1, APG05459.1 (Enterococcus sp.); experiment: cleavage_in_vitro; conditions: not given

Question: How did the activity turn out when “GAGCGGACAGCAGCUUCCUAUAUCUCGUACNNNNNNNNNNNNNNNNNNNNNNNNNGUUUUAGAGUCAUGUUAAAGAACAUAGCAAGUUAAAAUAAGGUUUUAACCGUAAUCAACUGUAAAGUGGCGCUGUUUCGGCGCUUUUUUUGUUU / GAGCGGACAGCAGCTTCCTAAATCTCGTAC / GTACGAGATTTAGGAAGCTGCTGTCCGCTC [Sequence 1 sgRNA for APG05459.1 ; target mismatch 10]” was run?
Answer: Its activity is 52 % cleaved.

Question: With “GAGCGGACAGCAGCUUCCUAUAUCUCGUACNNNNNNNNNNNNNNNNNNNNNNNNNGUUUUAGAGUCAUGUUAAAGAACAUAGCAAGUUAAAAUAAGGUUUUAACCGUAAUCAACUGUAAAGUGGCGCUGUUUCGGCGCUUUUUUUGUUU / GAGCGGACAGCAGCTTCCTATAACTCGTAC / GTACGAGTTATAGGAAGCTGCTGTCCGCTC [Sequence 1 sgRNA for APG05459.1 ; target mismatch 8]” as the molecule, how does the activity read?
Answer: The activity was 51 % cleaved.

Question: With “GAGCGGACAGCAGCUUCCUAUAUCUCGUACNNNNNNNNNNNNNNNNNNNNNNNNNGUUUUAGAGUCAUGUUAAAGAACAUAGCAAGUUAAAAUAAGGUUUUAACCGUAAUCAACUGUAAAGUGGCGCUGUUUCGGCGCUUUUUUUGUUU / GAGCGGACAGCAGCTTCCTATATCTCGAAC / GTTCGAGATATAGGAAGCTGCTGTCCGCTC [Sequence 1 sgRNA for APG05459.1 ; target mismatch 3]” as the molecule, how does the activity read?
Answer: Its activity is 3 % cleaved.

Question: With “GAGCGGACAGCAGCUUCCUAUAUCUCGUACNNNNNNNNNNNNNNNNNNNNNNNNNGUUUUAGAGUCAUGUUAAAGAACAUAGCAAGUUAAAAUAAGGUUUUAACCGUAAUCAACUGUAAAGUGGCGCUGUUUCGGCGCUUUUUUUGUUU / GAGCGGACAGCAGCTTCCTATATCTCGTAG / CTACGAGATATAGGAAGCTGCTGTCCGCTC [Sequence 1 sgRNA for APG05459.1 ; target mismatch 1]” as the molecule, how does the activity read?
Answer: The activity was 0 % cleaved.

Question: Which activity does the source give for “GAGCGGACAGCAGCUUCCUAUAUCUCGUACNNNNNNNNNNNNNNNNNNNNNNNNNGUUUUAGAGUCAUGUUAAAGAACAUAGCAAGUUAAAAUAAGGUUUUAACCGUAAUCAACUGUAAAGUGGCGCUGUUUCGGCGCUUUUUUUGUUU / GAGCGGACAGCAGCTTCCTATATCTCGTTC / GAACGAGATATAGGAAGCTGCTGTCCGCTC [Sequence 1 sgRNA for APG05459.1 ; target mismatch 2]” here?
Answer: Its activity is 74 % cleaved.

Question: Which activity does the source give for “GAGCGGACAGCAGCUUCCUAUAUCUCGUACNNNNNNNNNNNNNNNNNNNNNNNNNGUUUUAGAGUCAUGUUAAAGAACAUAGCAAGUUAAAAUAAGGUUUUAACCGUAAUCAACUGUAAAGUGGCGCUGUUUCGGCGCUUUUUUUGUUU / GAGCGGACAGCAGCTTCCTATATCTGGTAC / GTACCAGATATAGGAAGCTGCTGTCCGCTC [Sequence 1 sgRNA for APG05459.1 ; target mismatch 5]” here?
Answer: The activity was 0 % cleaved.

Question: With “GAGCGGACAGCAGCUUCCUAUAUCUCGUACNNNNNNNNNNNNNNNNNNNNNNNNNGUUUUAGAGUCAUGUUAAAGAACAUAGCAAGUUAAAAUAAGGUUUUAACCGUAAUCAACUGUAAAGUGGCGCUGUUUCGGCGCUUUUUUUGUUU / GAGCGGACAGCAGCTTCGTATATCTCGTAC / GTACGAGATATACGAAGCTGCTGTCCGCTC [Sequence 1 sgRNA for APG05459.1 ; target mismatch 13]” as the molecule, how does the activity read?
Answer: The activity was 18 % cleaved.

Question: Which activity does the source give for “GAGCGGACAGCAGCUUCCUAUAUCUCGUACNNNNNNNNNNNNNNNNNNNNNNNNNGUUUUAGAGUCAUGUUAAAGAACAUAGCAAGUUAAAAUAAGGUUUUAACCGUAAUCAACUGUAAAGUGGCGCUGUUUCGGCGCUUUUUUUGUUU / GAGCGGACTGCAGCTTCCTATATCTCGTAC / GTACGAGATATAGGAAGCTGCAGTCCGCTC [Sequence 1 sgRNA for APG05459.1 ; target mismatch 22]” here?
Answer: The activity was 48 % cleaved.

same assay, conditions: PAM SEQ 41; blunt cut 3 from PAM (Table 3)

Question: With “GAGCGGACAGCAGCUUCCUAUAUCUCGUACNNNNNNNNNNNNNNNNNNNNNNNNNGUUUUAGAGUCAUGUUAAAGAACAUAGCAAGUUAAAAUAAGGUUUUAACCGUAAUCAACUGUAAAGUGGCGCUGUUUCGGCGCUUUUUUUGUUU / GAGCGGACAGCAGCTTCCTATATCTCGTAC / GTACGAGATATAGGAAGCTGCTGTCCGCTC [Sequence 1 sgRNA for APG05459.1 ; Sequence 1 target]” as the molecule, how does the activity read?
Answer: Its activity is 67 % cleaved.

same assay, conditions: incompatible PAM

Question: For “GAGCGGACAGCAGCUUCCUAUAUCUCGUACNNNNNNNNNNNNNNNNNNNNNNNNNGUUUUAGAGUCAUGUUAAAGAACAUAGCAAGUUAAAAUAAGGUUUUAACCGUAAUCAACUGUAAAGUGGCGCUGUUUCGGCGCUUUUUUUGUUU / GAGCGGACAGCAGCTTCCTATATCTCGTAC / GTACGAGATATAGGAAGCTGCTGTCCGCTC”, which activity is on record?
Answer: Its activity is 0 % cleaved.

Biological target: T2, APG05083.1
Experiment: cell_activity; HEK293T; PAM NNNNCC
Conditions: tags: E. coli pRSF-1b expression; human cells: N-term SV40 NLS and 3xFLAG, C-term nucleoplasmin NLS
Experimental: The constructs described above were introduced into mammalian cells. One day prior to transfection, 1×10⁵ HEK293T cells/well (Sigma) were plated in 24-well dishes in Dulbecco's modified Eagle medium (DMEM) plus 10% (vol/vol) fetal bovine serum (Gibco) and 1% Penicillin-Streptomycin (Gibco). The next day when the cells were at 50-60% confluency, 500 ng of a RGN expression plasmid plus 500 ng of a single gRNA expression plasmid were co-transfected using […] of Lipofectamine 3000 (Thermo Scientific) per well, following the manufacturer's instructions. After 48 hours of growth, total genomic DNA was harvested using a genomic DNA isolation kit (Machery-Nagel) according to the manufacturer's instructions.
Additionally, products from PCR #2 containing Illumina overhang sequences underwent library preparation following the Illumina 16S Metagenomic Sequencing Library protocol. Deep sequencing was performed on an Illumina Mi-Seq platform by a service provider (MOGene). Typically 200,000 of 250 bp paired-end reads (2×100,000 reads) are generated per amplicon. The reads were analyzed using CRISPResso (Pinello, et al. 2016 Nature Biotech, 34:695-697) to calculate the rates of editing. Output alignments were hand-curated to confirm insertion and deletion sites as well as identify microhomology sites at the recombination sites. All experiments were performed in human cells. The “target sequence” is the targeted sequence within the gene target. For each target sequence, the guide RNA comprised the complementary RNA target sequence and the appropriate sgRNA depending on the RGN used.

Question: For B1, which activity is on record?
Answer: Its activity is 11.3 % editing.

Question: B2 was tested. Which activity did it give?
Answer: Its activity is 8.2 % editing.
